Five molecules from patent US10428140B2, “Anti-EphA4 antibody” (EISAI R&D MANAGEMENT CO., LTD., priority 2015, dated 2019) can be followed below.

Where a chain is given by its changes, count along the chain named.

First the molecules themselves.
T1: human EphA10 (Homo sapiens, UniProt Q5JZY3)
T1 construct: a protein of the extracellular region of each human Eph receptor fused with the SEAP protein and the His tag; made in house; host or cells: Expi293F cells (culture supernatant)
T1 sequence (Q5JZY3 34-565 limits assumed): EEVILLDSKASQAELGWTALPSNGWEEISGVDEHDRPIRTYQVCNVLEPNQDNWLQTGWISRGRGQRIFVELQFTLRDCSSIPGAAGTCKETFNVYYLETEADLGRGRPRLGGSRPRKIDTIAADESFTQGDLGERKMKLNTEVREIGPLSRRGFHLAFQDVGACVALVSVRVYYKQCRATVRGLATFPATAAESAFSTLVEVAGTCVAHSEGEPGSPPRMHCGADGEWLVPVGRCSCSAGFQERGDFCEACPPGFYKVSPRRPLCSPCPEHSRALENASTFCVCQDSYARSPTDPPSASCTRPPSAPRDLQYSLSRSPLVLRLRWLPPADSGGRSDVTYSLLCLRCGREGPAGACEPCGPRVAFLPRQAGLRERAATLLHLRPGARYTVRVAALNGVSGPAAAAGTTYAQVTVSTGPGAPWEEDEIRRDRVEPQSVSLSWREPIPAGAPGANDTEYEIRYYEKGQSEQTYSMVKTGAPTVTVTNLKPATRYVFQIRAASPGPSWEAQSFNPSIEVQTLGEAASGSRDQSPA

T2: human EphB4 (Homo sapiens, UniProt P54760)
T2 construct: a protein of the extracellular region of each human Eph receptor fused with the SEAP protein and the His tag; made in house; host or cells: Expi293F cells
T2 sequence (P54760 16-539 limits assumed): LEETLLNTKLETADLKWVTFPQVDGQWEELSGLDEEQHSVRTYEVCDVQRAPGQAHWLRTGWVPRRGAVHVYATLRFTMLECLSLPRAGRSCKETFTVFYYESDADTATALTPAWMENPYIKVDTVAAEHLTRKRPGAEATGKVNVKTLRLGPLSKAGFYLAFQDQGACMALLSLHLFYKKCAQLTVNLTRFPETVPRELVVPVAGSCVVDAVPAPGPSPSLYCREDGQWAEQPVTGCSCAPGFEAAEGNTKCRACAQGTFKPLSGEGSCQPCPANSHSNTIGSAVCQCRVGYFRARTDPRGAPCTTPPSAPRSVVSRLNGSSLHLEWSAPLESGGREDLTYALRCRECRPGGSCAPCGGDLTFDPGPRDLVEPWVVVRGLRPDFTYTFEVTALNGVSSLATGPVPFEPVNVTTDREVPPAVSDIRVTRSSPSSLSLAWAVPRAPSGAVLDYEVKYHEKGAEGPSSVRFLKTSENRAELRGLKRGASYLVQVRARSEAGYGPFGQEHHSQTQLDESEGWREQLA

T3: human EphB6 (Homo sapiens, UniProt O15197)
T3 construct: a protein of the extracellular region of each human Eph receptor fused with the SEAP protein and the His tag; made in house; host or cells: Expi293F cells
T3 sequence (O15197 32-594 limits assumed): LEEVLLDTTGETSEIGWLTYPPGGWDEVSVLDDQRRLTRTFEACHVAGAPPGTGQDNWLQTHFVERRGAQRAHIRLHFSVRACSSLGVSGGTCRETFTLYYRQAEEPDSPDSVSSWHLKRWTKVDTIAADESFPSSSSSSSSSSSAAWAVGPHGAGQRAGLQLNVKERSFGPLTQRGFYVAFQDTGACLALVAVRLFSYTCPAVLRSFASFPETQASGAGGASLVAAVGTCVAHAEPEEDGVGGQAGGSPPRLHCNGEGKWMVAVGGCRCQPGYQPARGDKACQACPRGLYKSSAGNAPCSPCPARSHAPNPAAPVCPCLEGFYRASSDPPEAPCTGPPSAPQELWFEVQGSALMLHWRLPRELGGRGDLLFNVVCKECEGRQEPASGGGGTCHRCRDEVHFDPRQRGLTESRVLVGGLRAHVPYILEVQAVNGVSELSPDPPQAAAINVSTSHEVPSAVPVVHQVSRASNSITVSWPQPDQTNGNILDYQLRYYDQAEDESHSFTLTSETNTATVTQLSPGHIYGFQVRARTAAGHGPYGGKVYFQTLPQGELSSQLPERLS

B1: 133 (antibody, V domains shown)
VH: QVQLVQSGSELKKPGASVKVSCKASGYTFTDYSMHWVRQAPGQGLEWMGWINTETGEPTYAQGFTGRFVFSLDTSVSTAYLQISSLKAEDTAVYYCARIPLYYYGSRYWYFDVWGQGTTVTVSS
VL: EIVMTQSPATLSVSPGERATLSCRASENIYRNLAWYQQKPGQSPRLLIYAATNLADGIPARFSGSGSGTEYTLTISSLQSEDFAVYYCQHFWGTPWTFGQGTKVEIK
modifications: synthetic humanized antibody heavy chain variable region sequence; synthetic humanized antibody light chain variable region sequence
B2: 132 (antibody, V domains shown)
VH: B1 VH with V2I, E46K
VL: B1 VL
modifications: synthetic humanized antibody heavy chain variable region sequence; synthetic humanized antibody light chain variable region sequence
B3: 135 (antibody, V domains shown)
VH: B1 VH with Q62D, G63D, T65K
VL: B1 VL
modifications: synthetic humanized antibody heavy chain variable region sequence; synthetic humanized antibody light chain variable region sequence
B4: 134 (antibody, V domains shown)
VH: B1 VH with E46K
VL: B1 VL
modifications: synthetic humanized antibody heavy chain variable region sequence; synthetic humanized antibody light chain variable region sequence
B5: 75 (antibody)
VH: B1 VH
VL: DIQMTQSPSSLSASVGDRVTITCRASENIYRNLAWYQQKPGKAPKLLVYAATNLADGVPSRFSGSGSGTDYTLTISSLQPEDFATYYCQHFWGTPWTFGQGTKVEIK
chain: ASTKGPSVFPLAPSSKSTSGGTAALGCLVKDYFPEPVTVSWNSGALTSGVHTFPAVLQSSGLYSLSSVVTVPSSSLGTQTYICNVNHKPSNTKVDKRVEPKSCDKTHTCPPCPAPPAAAPSVFLFPPKPKDTLMISRTPEVTCVVVDVSHEDPEVQFNWYVDGVEVHNAKTKPREEQFNSTFRVVSVLTVVHQDWLNGKEYKCKVSNKGLPAPIEKTISKTKGQPREPQVYTLPPSREEMTKNQVSLTCLVKGFYPSDIAVEWESNGQPENNYKTTPPMLDSDGSFFLYSKLTVDKSRWQQGNVFSCSVMHEALHNHYTQKSLSLSPG
modifications: synthetic humanized antibody heavy chain variable region sequence; synthetic humanized antibody light chain variable region sequence; synthetic antibody constant region sequence

The first assay has as its target T1, human EphA10. As to the kind of experiment: Selectivity ELISA of humanized antibodies for human Eph receptor. The assay is classed as binding. To be noted: coated protein 1 nM. In short, it runs like this:
(§1)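 Steps: coat anti-His antibody; block, then 1% BlockAce overnight at 4 °C; add Eph receptor extracellular region-SEAP-His (1 nM final) 1 h; add humanized antibody 1 h; add HRP anti-IgG 1 h; develop TMB; stop with acid; read 450 nm.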
For B1, the “hEphA10-SEAP-: absorbance at 450 nm, percentage with respect to hEphA4-SEAP-His as 100%” value turned out to be 4.7%.
The same measure, in the same setting: the value for B2 was 4.7%; that for B3 was 5.1%.
Same read-out and setting: the value for B4 was 5.0%; that for B5 was 4.4%.

In another assay the target is T2, human EphB4. The assay is described as above. The class given is binding. To be noted: coated protein 1 nM. In short, it runs like this: as §1
In the case of B1, the “hEphB4-SEAP-: absorbance at 450 nm, percentage with respect to hEphA4-SEAP-His as 100%” value was found to be 4.9%.
Same read-out and setting: the value for B2 was 4.8%; that for B3 was 5.1%.
The same measure, in the same setting: the value for B4 was 5.1%.
Turning to B5, the “hEphB4-SEAP-: absorbance at 450 nm, percentage with respect to hEphA4-SEAP-His as 100%” value was 4.6%.

The target of the next assay is T3, human EphB6. The description is as above. The class given is binding. To be noted: coated protein 1 nM. In short, it runs like this:
as §1
On to B1, for which the “hEphB6-SEAP-: absorbance at 450 nm, percentage with respect to hEphA4-SEAP-His as 100%” value is given as 4.8%.
Still for that read-out and setting: the value for B2 was 4.7%.
On to B3, for which the “hEphB6-SEAP-: absorbance at 450 nm, percentage with respect to hEphA4-SEAP-His as 100%” value stood at 5.3%.
Same read-out and setting: the value for B4 was 5.2%.
The same measure, in the same setting: the value for B5 was 4.7%.
